# Patent publication US20060287510A1 (Genentech, published 2006)
# Biological target: T1, recombinant human insulin-like growth factor-1 (rhIGF-1) (human, UniProt P05019 49-118)
# T1 construct: Soluble protein used for crystallization, sedimentation equilibrium and NMR; It was uniformly 13C/15N labelled for the NMR complex with IGF-F1-1; also called human IGF-1; 13C/15N IGF-1
# Assay: NMR structure of the complex (figure legend)
# T1 sequence (P05019 49-118): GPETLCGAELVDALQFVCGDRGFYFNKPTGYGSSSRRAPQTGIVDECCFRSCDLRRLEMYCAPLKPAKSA
binder,measurement,value
RNCFESVAALRRCMYG (Unlabelled peptide mixed in slight molar excess with 1.5 mM 13C/15N IGF-1 for NMR) [phage-derived IGF-1 antagonist peptide IGF-F1-1],binding result,binds
